Molecular target: GST-fused full length CIN85 (human, UniProt Q96B97-1 1-665)
Experiment: pull-down

GST-fused full length CIN85, sequence (Q96B97 whole entry, the tested form may be a part): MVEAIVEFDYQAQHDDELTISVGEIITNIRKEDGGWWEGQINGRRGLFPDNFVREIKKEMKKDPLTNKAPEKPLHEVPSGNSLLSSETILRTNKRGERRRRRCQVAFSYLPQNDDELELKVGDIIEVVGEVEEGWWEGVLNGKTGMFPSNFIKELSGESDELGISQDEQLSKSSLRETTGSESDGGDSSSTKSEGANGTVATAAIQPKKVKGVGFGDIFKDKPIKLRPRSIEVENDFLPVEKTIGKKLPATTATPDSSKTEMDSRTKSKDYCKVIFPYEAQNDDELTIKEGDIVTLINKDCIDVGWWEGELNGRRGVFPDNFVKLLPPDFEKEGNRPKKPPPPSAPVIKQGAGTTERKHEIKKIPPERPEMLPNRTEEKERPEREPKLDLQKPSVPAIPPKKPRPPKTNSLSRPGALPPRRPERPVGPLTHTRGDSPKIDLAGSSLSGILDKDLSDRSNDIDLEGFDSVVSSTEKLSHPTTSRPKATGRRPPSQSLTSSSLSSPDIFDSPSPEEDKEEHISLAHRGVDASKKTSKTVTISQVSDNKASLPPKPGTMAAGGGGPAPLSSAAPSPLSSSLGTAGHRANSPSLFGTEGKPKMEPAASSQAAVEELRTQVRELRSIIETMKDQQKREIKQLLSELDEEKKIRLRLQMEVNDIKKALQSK

Binder	EC50	fold more GST-CIN85 required for similar binding than for Flag-ARAP1
Flag-ARAP1 (natural protein, human, UniProt Q96P48 1-1450, looked up) MAEAGDAALSVAEWLRALHLEQYTGLFEQHGLVWATECQGLSDTRLMDMGMLLPGHRRRILAGLLRAHTSPAPAPRPTPRPVPMKRHIFRSPPVPATPPEPLPTTTEDEGLPAAPPIPPRRSCLPPTCFTTPSTAAPDPVLPPLPAKRHLAELSVPPVPPRTGPPRLLVSLPTKEEESLLPSLSSPPQPQSEEPLSTLPQGPPQPPSPPPCPPEIPPKPVRLFPEFDDSDYDEVPEEGPGAPARVMTKKEEPPPSRVPRAVRVASLLSEGEELSGDDQGDEEEDDHAYEGVPNGGWHTSSLSLSLPSTIAAPHPMDGPPGGSTPVTPVIKAGWLDKNPPQGSYIYQKRWVRLDTDHLRYFDSNKDAYSKRFISVACISHVAAIGDQKFEVITNNRTFAFRAESDVERKEWMQALQQAMAEQRARARLSSAYLLGVPGSEQPDRAGSLELRGFKNKLYVAVVGDKVQLYKNLEEYHLGIGITFIDMSVGNVKEVDRRSFDLTTPYRIFSFSADSELEKEQWLEAMQGAIAEALSTSEVAERIWAAAPNRFCADCGAPQPDWASINLCVVICKRCAGEHRGLGAGVSKVRSLKMDRKVWTETLIELFLQLGNGAGNRFWAANVPPSEALQPSSSPSTRRCHLEAKYREGKYRRYHPLFGNQEELDKALCAAVTTTDLAETQALLGCGAGINCFSGDPEAPTPLALAEQAGQTLQMEFLRNNRTTEVPRLDSMKPLEKHYSVVLPTVSHSGFLYKTASAGKLLQDRRAREEFSRRWCVLGDGVLSYFENERAVTPNGEIRASEIVCLAVPPPDTHGFEHTFEVYTEGERLYLFGLESAEQAHEWVKCIAKAFVPPLAEDLLARDFERLGRLPYKAGLSLQRAQEGWFSLSGSELRAVFPEGPCEEPLQLRKLQELSIQGDSENQVLVLVERRRTLYIQGERRLDFMGWLGAIQKAAASMGDTLSEQQLGDSDIPVIVYRCVDYITQCGLTSEGIYRKCGQTSKTQRLLESLRQDARSVHLKEGEQHVDDVSSALKRFLRDLPDGLFTRAQRLTWLEASEIEDEEEKVSRYRELLVRLPPVNRATVKALISHLYCVQCFSDTNQMNVHNLAIVFGPTLFQTDGQDYKAGRVVEDLINHYVVVFSVDEEELRKQREEITAIVKMRVAGTASGTQHAGDFICTVYLEEKKAETEQHIKVPASMTAEELTLEILDRRNVGIREKDYWTCFEVNEREEAERPLHFAEKVLPILHGLGTDSHLVVKKHQAMEAMLLYLASRVGDTKHGMMKFREDRSLLGLGLPSGGFHDRYFILNSSCLRLYKEVRSQRPWSGAPETSHRPEKEWPIKSLKVYLGVKKKLRPPTCWGFTVVHETEKHEKQQWYLCCDTQMELREWFATFLFVQHDGLVWPSEPSRVSRAVPEVRLGSVSLIPLRGSENEMRRSVAAFTADPLSLLRNV	5.6 ± 0.9 nM	
Flag-[R86/90A]ARAP1 (natural protein, human, UniProt Q96P48 1-1450, looked up) MAEAGDAALSVAEWLRALHLEQYTGLFEQHGLVWATECQGLSDTRLMDMGMLLPGHRRRILAGLLRAHTSPAPAPRPTPRPVPMKAHIFASPPVPATPPEPLPTTTEDEGLPAAPPIPPRRSCLPPTCFTTPSTAAPDPVLPPLPAKRHLAELSVPPVPPRTGPPRLLVSLPTKEEESLLPSLSSPPQPQSEEPLSTLPQGPPQPPSPPPCPPEIPPKPVRLFPEFDDSDYDEVPEEGPGAPARVMTKKEEPPPSRVPRAVRVASLLSEGEELSGDDQGDEEEDDHAYEGVPNGGWHTSSLSLSLPSTIAAPHPMDGPPGGSTPVTPVIKAGWLDKNPPQGSYIYQKRWVRLDTDHLRYFDSNKDAYSKRFISVACISHVAAIGDQKFEVITNNRTFAFRAESDVERKEWMQALQQAMAEQRARARLSSAYLLGVPGSEQPDRAGSLELRGFKNKLYVAVVGDKVQLYKNLEEYHLGIGITFIDMSVGNVKEVDRRSFDLTTPYRIFSFSADSELEKEQWLEAMQGAIAEALSTSEVAERIWAAAPNRFCADCGAPQPDWASINLCVVICKRCAGEHRGLGAGVSKVRSLKMDRKVWTETLIELFLQLGNGAGNRFWAANVPPSEALQPSSSPSTRRCHLEAKYREGKYRRYHPLFGNQEELDKALCAAVTTTDLAETQALLGCGAGINCFSGDPEAPTPLALAEQAGQTLQMEFLRNNRTTEVPRLDSMKPLEKHYSVVLPTVSHSGFLYKTASAGKLLQDRRAREEFSRRWCVLGDGVLSYFENERAVTPNGEIRASEIVCLAVPPPDTHGFEHTFEVYTEGERLYLFGLESAEQAHEWVKCIAKAFVPPLAEDLLARDFERLGRLPYKAGLSLQRAQEGWFSLSGSELRAVFPEGPCEEPLQLRKLQELSIQGDSENQVLVLVERRRTLYIQGERRLDFMGWLGAIQKAAASMGDTLSEQQLGDSDIPVIVYRCVDYITQCGLTSEGIYRKCGQTSKTQRLLESLRQDARSVHLKEGEQHVDDVSSALKRFLRDLPDGLFTRAQRLTWLEASEIEDEEEKVSRYRELLVRLPPVNRATVKALISHLYCVQCFSDTNQMNVHNLAIVFGPTLFQTDGQDYKAGRVVEDLINHYVVVFSVDEEELRKQREEITAIVKMRVAGTASGTQHAGDFICTVYLEEKKAETEQHIKVPASMTAEELTLEILDRRNVGIREKDYWTCFEVNEREEAERPLHFAEKVLPILHGLGTDSHLVVKKHQAMEAMLLYLASRVGDTKHGMMKFREDRSLLGLGLPSGGFHDRYFILNSSCLRLYKEVRSQRPWSGAPETSHRPEKEWPIKSLKVYLGVKKKLRPPTCWGFTVVHETEKHEKQQWYLCCDTQMELREWFATFLFVQHDGLVWPSEPSRVSRAVPEVRLGSVSLIPLRGSENEMRRSVAAFTADPLSLLRNV		8 fold

Source: publication PMC3495168 (Biology of the cell / under the auspices of the European …, 2011)
